Measurements from patent US20040092720A1 (US Dept. of Health and Human Services, published 2004).
Values belong to the binder of their own block, whether it stands above or below them.

Columns and labels:
recombinant human IL-6 [1] = target: T1, recombinant human IL-6 (human, UniProt P05231 30-212, labeled with radioactive iodine); test: radioiodinated IL-6 on peptide array
T1 construct: Labeled probe in solution, added to wells that carry the synthetic peptides; also called IL-6 ligand; Interleukin-6

recombinant human IL-6 [2] = target: T1, recombinant human IL-6; test: radioiodinated IL-6 on peptide array; experiment D11-D57
Experimental: (§1) Synthetic peptide arrays were constructed in 96-well microtiter plates in accordance with the method set forth in WO 91/02714 (Saxinger), and used to test the binding of recombinant human IL-6 that had been labeled with radioactive iodine (radiolabeling by standard methods). After incubating the radiolabeled IL-6 ligand in a well with each synthetic peptide, a washing step was performed to remove unbound label, and the relative level of radioactivity remaining in each well of the plate was evaluated to determine the relative affinity of each peptide for IL-6 ligand.

recombinant human IL-6 [3] = target: T1, recombinant human IL-6; test: radioiodinated IL-6 on peptide array; experiment D1-D10
Experimental: as §1

recombinant human IL-6 [4] = target: T1, recombinant human IL-6; test: radioiodinated IL-6 on peptide array; remark: listed apart in the source
Target sequence in this assay (P05231 30-212 limits assumed): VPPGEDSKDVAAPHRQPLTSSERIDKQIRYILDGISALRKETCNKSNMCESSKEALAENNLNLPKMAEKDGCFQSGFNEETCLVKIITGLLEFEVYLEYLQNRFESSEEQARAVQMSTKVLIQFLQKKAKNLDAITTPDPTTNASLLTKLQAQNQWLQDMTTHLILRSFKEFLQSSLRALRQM

Counts/minute bound (recombinant human IL-6 [1]): 1380 counts/minute
Binder: VGMEAATDEGMPKSYLPQTVRQGG [Peptide E90]

Counts/minute bound (recombinant human IL-6 [2]): 24000 counts/minute
Binder: AFGTLLCIAIVLRFKKT [Peptide D31]

Counts/minute bound (recombinant human IL-6 [2]): 1200 counts/minute
Binder: GGSLAFGTLLCI [Peptide D20]

Counts/minute bound (recombinant human IL-6 [2]): 12400 counts/minute
Binder: LCIAIVLRFKKT [Peptide D36]

Counts/minute bound (recombinant human IL-6 [2]): 1110 counts/minute
Binder: GGSLAFGTLLC [Peptide D21]

Counts/minute bound (recombinant human IL-6 [1]): 1000 counts/minute
Binder: GSGQMKMFQEVSAADAFGPGTEGQ [Peptide E87]

Counts/minute bound (recombinant human IL-6 [1]): 1090 counts/minute
Binder: VSAADAFGPGTEGQVERFETVGME [Peptide E88]

Counts/minute bound (recombinant human IL-6 [2]): 4880 counts/minute
Binder: AIVLRFKKT [Peptide D39]

Counts/minute bound (counts/minute) (recombinant human IL-6 [4]): 1850
Binder: PRSTPSLTTKAVLL [Peptide B8]

Counts/minute bound (recombinant human IL-6 [3]): 4520 counts/minute
Binder: VQDSSSVPLPTFLVAGGSLAF [Peptide D2]

Counts/minute bound (recombinant human IL-6 [2]): 3950 counts/minute
Binder: GGSLAFGTLLCIAIVLR [Peptide D15]

Counts/minute bound (recombinant human IL-6 [2]): 1180 counts/minute
Binder: GGSLAFGTLLCIAI [Peptide D18]

Counts/minute bound (recombinant human IL-6 [2]): 4450 counts/minute
Binder: IVLRFKKT [Peptide D40]

Counts/minute bound (recombinant human IL-6 [2]): 21400 counts/minute
B2: Peptide D44 (peptide)
peptide: GGSLAFGTLLCIAIVLRFKKA
notes: alanine-scan variant of the domain IV 21-mer

Counts/minute bound (recombinant human IL-6 [2]): 22100 counts/minute
B3: Peptide D49 (peptide)
peptide: GGSLAFGTLLCIAIVARFKKT
notes: as for B2

Counts/minute bound (recombinant human IL-6 [2]): 22300 counts/minute
B5: Peptide D57 (peptide)
peptide: GGSLAFATLLCIAIVLRFKKT
notes: as for B2

Counts/minute bound (recombinant human IL-6 [2]): 29400 counts/minute
B6: Peptide D48 (peptide)
peptide: GGSLAFGTLLCIAIVLAFKKT
notes: as for B2

Counts/minute bound (recombinant human IL-6 [2]): 27700 counts/minute
B7: Peptide D52 (peptide)
peptide: GGSLAFGTLLCAAIVLRFKKT
notes: as for B2

Counts/minute bound (recombinant human IL-6 [2]): 22000 counts/minute
B8: Peptide D54 (peptide)
peptide: GGSLAFGTLACIAIVLRFKKT
notes: as for B2

Counts/minute bound (recombinant human IL-6 [2]): 17900 counts/minute
B10: Peptide D50 (peptide)
peptide: GGSLAFGTLLCIAIALRFKKT
notes: as for B2

Counts/minute bound (recombinant human IL-6 [2]): 22100 counts/minute
B11: Peptide D55 (peptide)
peptide: GGSLAFGTALCIAIVLRFKKT
notes: as for B2

Counts/minute bound (recombinant human IL-6 [2]): 30800 counts/minute
B12: Peptide D46 (peptide)
peptide: GGSLAFGTLLCIAIVLRFAKT
notes: as for B2

Counts/minute bound (recombinant human IL-6 [2]): 26400 counts/minute
Binder: GSLAFGTLLCIAIVLRFKKT [Peptide D28]

Counts/minute bound (recombinant human IL-6 [2]): 21800 counts/minute
Binder: FGTLLCIAIVLRFKKT [Peptide D32]

Counts/minute bound (recombinant human IL-6 [2]): 6800 counts/minute
Binder: IAIVLRFKKT [Peptide D38]

Counts/minute bound (recombinant human IL-6 [3]): 19800 counts/minute
Binder: SVPLPTFLVAGGSLAFGTLLC [Peptide D3]

Counts/minute bound (recombinant human IL-6 [2]): 2460 counts/minute
Binder: GGSLAFGTLLCIAIVL [Peptide D16]

Counts/minute bound (recombinant human IL-6 [3]): 5530 counts/minute
Binder: TWKLRALKEGKTSMHPPYSLG [Peptide D9]

Counts/minute bound (recombinant human IL-6 [2]): 15700 counts/minute
Binder: GTLLCIAIVLRFKKT [Peptide D33]

Counts/minute bound (recombinant human IL-6 [2]): 18100 counts/minute
Binder: GGSLAFGTLLCIAIVLRFKK [Peptide D12]

Counts/minute bound (recombinant human IL-6 [2]): 997 counts/minute
Binder: GGSLAFGTL [Peptide D23]

Counts/minute bound (recombinant human IL-6 [2]): 7690 counts/minute
Binder: GGSLAFGTLLCIAIVLRF [Peptide D14]

Counts/minute bound (recombinant human IL-6 [3]): 52500 counts/minute
Binder: CIAIVLRFKKTWKLRALKEGK [Peptide D7]

Counts/minute bound (recombinant human IL-6 [2]): 15500 counts/minute
Binder: LLCIAIVLRFKKT [Peptide D35]

Further lines, the binder ahead of its results:

Binder: TEGQVERFETVGMEAATDEGMPKS [Peptide E89]
Counts/minute bound (recombinant human IL-6 [1]): 1130 counts/minute

Binder: ATSLPVQDSSSVPLPTFLVAG [Peptide D1]
Counts/minute bound (recombinant human IL-6 [3]): 4000 counts/minute

Binder: GGSLAFG (also called GGSLAFG) [Peptide D25]
Counts/minute bound (recombinant human IL-6 [2]): 952 counts/minute

Binder: MPKSYLPQTVRQGGYMPQ [Peptide E91]
Counts/minute bound (recombinant human IL-6 [1]): 1230 counts/minute

Binder: VLRFKKT (also called VLRFKKT) [Peptide D41]
Counts/minute bound (recombinant human IL-6 [2]): 2550 counts/minute

Binder: LAFGTLLCIAIVLRFKKT [Peptide D30]
Counts/minute bound (recombinant human IL-6 [2]): 22700 counts/minute

Binder: SDKAPCITDWQQEDGTVHRTYLRG [Peptide E47]
Counts/minute bound (counts/minute) (recombinant human IL-6 [4]): 2080

Binder: SLAFGTLLCIAIVLRFKKT [Peptide D29]
Counts/minute bound (recombinant human IL-6 [2]): 24700 counts/minute

Binder: LTCNILTFGQLEQNVYGITIISGL [Peptide E11]
Counts/minute bound (counts/minute) (recombinant human IL-6 [4]): 1820

Binder: TLLCIAIVLRFKKT [Peptide D34]
Counts/minute bound (recombinant human IL-6 [2]): 12400 counts/minute

Binder: AAGSHPSRWAGMGRRL [Peptide A6]
Counts/minute bound (counts/minute) (recombinant human IL-6 [4]): 1750

Binder: CIAIVLRFKKT [Peptide D37]
Counts/minute bound (recombinant human IL-6 [2]): 8350 counts/minute

Binder: LRFKKT [Peptide D42]
Counts/minute bound (counts/minute) (recombinant human IL-6 [2]): 1960

Binder: GGSLAFGTLLCIAIVLRFK [Peptide D13]
Counts/minute bound (recombinant human IL-6 [2]): 16100 counts/minute

Binder: ALKEGKTSMHPPYSLGQLVPE [Peptide D10]
Counts/minute bound (recombinant human IL-6 [3]): 4970 counts/minute

Binder: GGSLAFGTLLCIAIVLRFKKT (also called D11; D27) [Peptide D5]
Counts/minute bound (recombinant human IL-6 [3]): 159000 counts/minute

B1: Peptide D56 (peptide)
peptide: GGSLAFGALLCIAIVLRFKKT
notes: as for B2
Counts/minute bound (recombinant human IL-6 [2]): 23000 counts/minute

B4: Peptide D51 (peptide)
peptide: GGSLAFGTLLCIAAVLRFKKT
notes: as for B2
Counts/minute bound (recombinant human IL-6 [2]): 28500 counts/minute

B9: Peptide D45 (peptide)
peptide: GGSLAFGTLLCIAIVLRFKAT
notes: as for B2
Counts/minute bound (recombinant human IL-6 [2]): 28600 counts/minute

B13: Peptide D47 (peptide)
peptide: GGSLAFGTLLCIAIVLRAKKT
notes: as for B2
Counts/minute bound (recombinant human IL-6 [2]): 20900 counts/minute

B14: Peptide D53 (peptide)
peptide: GGSLAFGTLLAIAIVLRFKKT
notes: as for B2
Counts/minute bound (recombinant human IL-6 [2]): 34900 counts/minute

Binder: LRFKKTWKLRALKEGKTSMHP [Peptide D8]
Counts/minute bound (recombinant human IL-6 [3]): 20400 counts/minute

Binder: GGSLAF (also called GGSLAF) [Peptide D26]
Counts/minute bound (recombinant human IL-6 [2]): 1050 counts/minute

Binder: GGSLAFGTLLCIA [Peptide D19]
Counts/minute bound (recombinant human IL-6 [2]): 1150 counts/minute

Binder: GGSLAFGTLLCIAIV [Peptide D17]
Counts/minute bound (recombinant human IL-6 [2]): 1340 counts/minute

Binder: GGSLAFGTLL [Peptide D22]
Counts/minute bound (recombinant human IL-6 [2]): 1000 counts/minute

Binder: TFLVAGGSLAFGTLLCIAIVL [Peptide D4]
Counts/minute bound (recombinant human IL-6 [3]): 32000 counts/minute

Binder: GGSLAFGT [Peptide D24]
Counts/minute bound (recombinant human IL-6 [2]): 981 counts/minute

Binder: FGTLLCIAIVLRFKKTWKLRA [Peptide D6]
Counts/minute bound (recombinant human IL-6 [3]): 144000 counts/minute
